According to FireProtDB (doi:10.1016/j.jmb.2003.11.056):
Values joined by “and” are separate entries in the source; they are usually repeats but may differ in a detail not shown here. Equal values may be shown once.

Conditions: Escherichia coli (strain K12), Thermal, Fluorescence, whole UniProt chain shown

B1: Iron-sulfur cluster assembly protein CyaY wild type, P27838 (protein)
chain: MNDSEFHRLADQLWLTIEERLDDWDGDSDIDCEINGGVLTITFENGSKIIINRQEPLHQVWLATKQGGYHFDLKGDEWICDRSGETFWDLLEQAATQQAGETVSFR
- Tm (pH 7, phosphate 20 mM): 53.2 °C and 53.9 °C and 53.8 °C
- Tm (pH 7.2, Hepes 10 mM): 49.2 °C and 50.9 °C
